Drawing on patent publication US20240301064A1 (published 2024), this text covers Kd for six molecules.

A word on the Kd: it is the concentration at which binding is half-saturated. High values mean lower affinity, low ones higher affinity.

In the test the target is T1, human PD-1 (human, UniProt Q15116 25-167, limits assumed).
T1 construct: also called huPD-1
Kind of test: BLI, antibody on AHC tip, soluble PD-1.

T1 sequence (Q15116 25-167 limits assumed): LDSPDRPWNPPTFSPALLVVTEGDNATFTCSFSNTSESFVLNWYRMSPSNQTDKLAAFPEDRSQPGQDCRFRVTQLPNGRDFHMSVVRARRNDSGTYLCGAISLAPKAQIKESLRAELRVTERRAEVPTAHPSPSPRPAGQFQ

B1: PMAB204 (bispecific antibody, human IgG1, kappa)
heavy: QVQLVQSGAEVKKPGASVKVSCKASGYTFSDHYMHWVRQAPGQGLEWMGIIAPSGGRTSYAQKFQGRVTMTRDTSTSTVYMELSSLRSEDTAVYYCAADNGHASGWLYYYGMDVWGQGTTVTVSSASTKGPSVFPLAPSSKSTSGGTAALGCLVKDYFPEPVTVSWNSGALTSGVHTFPAVLQSSGLYSLSSVVTVPSSSLGTQTYICNVNHKPSNTKVDKKVEPKSCDKTHTCPPCPAPEAAGAPSVFLFPPKPKDTLMISRTPEVTCVVVDVSHEDPEVKFNWYVDGVEVHNAKTKPREEQYNSTYRVVSVLTVLHQDWLNGKEYKCKVSNKALPAPIEKTISKAKGQPREPQVYTLPPSREEMTKNQVSLTCLVKGFYPSDIAVEWESNGQPENNYKTTPPVLDSDGSFFLYSKLTVDKSRWQQGNVFSCSVMHEALHNHYTQKSLSLSPGGGGGSGGGGSGGGGSEVQLLESGGGLVQPGGSLRLSCAASGFTFSDFWMHWVRQAPGKGLEWISYISGDSGYTNYADSVKGRFTISRDNSKNTLYLQMNSLRAEDTAVYYCARDRPYYYYMDVWGKGTTVTVSSGGGGSGGGGSGGGGSGGGGSDIQMTQSPSSLSASVGDRVTITCRASQSVSRSLAWYQQKPGKAPKLLIYAASSLQSGVPSRFSGSGSGTDFTLTISSLQPEDFATYYCQQYKSYPVTFGQGTKVEIK
light: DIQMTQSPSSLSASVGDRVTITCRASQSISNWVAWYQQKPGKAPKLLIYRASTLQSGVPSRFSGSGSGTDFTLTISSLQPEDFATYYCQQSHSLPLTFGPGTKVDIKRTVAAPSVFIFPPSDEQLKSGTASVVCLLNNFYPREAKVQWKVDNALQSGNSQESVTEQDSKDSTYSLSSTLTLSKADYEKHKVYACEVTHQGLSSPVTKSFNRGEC
Turning to B1, the Kd was 1710 nM.

B2: PMAB209 (bispecific antibody, human IgG1, kappa)
heavy: QVQLVQSGAEVKKPGASVKVSCKASGYTFSDHYMHWVRQAPGQGLEWMGTIAPSGGRTSYAQKFQGRVTMTRDTSTSTVYMELSSLRSEDTAVYYCAADNGHASGWLYYYGMDVWGQGTTVTVSSASTKGPSVFPLAPSSKSTSGGTAALGCLVKDYFPEPVTVSWNSGALTSGVHTFPAVLQSSGLYSLSSVVTVPSSSLGTQTYICNVNHKPSNTKVDKKVEPKSCDKTHTCPPCPAPEAAGAPSVFLFPPKPKDTLMISRTPEVTCVVVDVSHEDPEVKFNWYVDGVEVHNAKTKPREEQYNSTYRVVSVLTVLHQDWLNGKEYKCKVSNKALPAPIEKTISKAKGQPREPQVYTLPPSREEMTKNQVSLTCLVKGFYPSDIAVEWESNGQPENNYKTTPPVLDSDGSFFLYSKLTVDKSRWQQGNVFSCSVMHEALHNHYTQKSLSLSPGGGGGSGGGGSGGGGSEVQLLESGGGLVQPGGSLRLSCAASGFTFSDFWMHWVRQAPGKGLEWISYISGDSGYTNYADSVKGRFTISRDNSKNTLYLQMNSLRAEDTAVYYCARDRPYYYYMDVWGKGTTVTVSSGGGGSGGGGSGGGGSGGGGSDIQMTQSPSSLSASVGDRVTITCRASQSVSRSLAWYQQKPGKAPKLLIYAASSLQSGVPSRFSGSGSGTDFTLTISSLQPEDFATYYCQQYKSYPVTFGQGTKVEIK
light: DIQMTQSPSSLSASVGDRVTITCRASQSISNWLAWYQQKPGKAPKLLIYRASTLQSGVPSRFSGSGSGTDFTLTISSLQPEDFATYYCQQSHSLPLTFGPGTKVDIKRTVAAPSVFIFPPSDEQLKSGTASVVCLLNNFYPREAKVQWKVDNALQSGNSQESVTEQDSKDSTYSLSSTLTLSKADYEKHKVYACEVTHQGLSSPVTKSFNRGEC
As to B2, binding was characterised by a dissociation constant (Kd) of 687 nM.

B3: PMAB208 (bispecific antibody, human IgG1, kappa)
heavy: QVQLVQSGAEVKKPGASVKVSCKASGYTFSDHYMHWVRQAPGQGLEWMGTIAPSGGRTSYAQKFQGRVTMTRDTSTSTVYMELSSLRSEDTAVYYCAADNGHASGWLYYYGMDVWGQGTTVTVSSASTKGPSVFPLAPSSKSTSGGTAALGCLVKDYFPEPVTVSWNSGALTSGVHTFPAVLQSSGLYSLSSVVTVPSSSLGTQTYICNVNHKPSNTKVDKKVEPKSCDKTHTCPPCPAPEAAGAPSVFLFPPKPKDTLMISRTPEVTCVVVDVSHEDPEVKFNWYVDGVEVHNAKTKPREEQYNSTYRVVSVLTVLHQDWLNGKEYKCKVSNKALPAPIEKTISKAKGQPREPQVYTLPPSREEMTKNQVSLTCLVKGFYPSDIAVEWESNGQPENNYKTTPPVLDSDGSFFLYSKLTVDKSRWQQGNVFSCSVMHEALHNHYTQKSLSLSPGGGGGSGGGGSGGGGSEVQLLESGGGLVQPGGSLRLSCAASGFTFSDFWMHWVRQAPGKGLEWISYISGDSGYTNYADSVKGRFTISRDNSKNTLYLQMNSLRAEDTAVYYCARDRPYYYYMDVWGKGTTVTVSSGGGGSGGGGSGGGGSGGGGSDIQMTQSPSSLSASVGDRVTITCRASQSVSRSLAWYQQKPGKAPKLLIYAASSLQSGVPSRFSGSGSGTDFTLTISSLQPEDFATYYCQQYKSYPVTFGQGTKVEIK
light: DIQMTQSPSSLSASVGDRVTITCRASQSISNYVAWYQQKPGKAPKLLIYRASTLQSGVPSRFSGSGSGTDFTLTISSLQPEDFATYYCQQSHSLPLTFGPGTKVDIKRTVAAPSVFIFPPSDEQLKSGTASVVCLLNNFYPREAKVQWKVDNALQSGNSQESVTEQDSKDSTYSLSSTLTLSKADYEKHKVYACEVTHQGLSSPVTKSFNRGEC
B3 had a Kd of 553 nM.

B4: PMAB210 (bispecific antibody, human IgG1, kappa)
heavy: QVQLVQSGAEVKKPGASVKVSCKASGYTFSDHYMHWVRQAPGQGLEWMGTIAPSGGRTSYAQKFQGRVTMTRDTSTSTVYMELSSLRSEDTAVYYCAADNGHASGWLYYYGMDVWGQGTTVTVSSASTKGPSVFPLAPSSKSTSGGTAALGCLVKDYFPEPVTVSWNSGALTSGVHTFPAVLQSSGLYSLSSVVTVPSSSLGTQTYICNVNHKPSNTKVDKKVEPKSCDKTHTCPPCPAPEAAGAPSVFLFPPKPKDTLMISRTPEVTCVVVDVSHEDPEVKFNWYVDGVEVHNAKTKPREEQYNSTYRVVSVLTVLHQDWLNGKEYKCKVSNKALPAPIEKTISKAKGQPREPQVYTLPPSREEMTKNQVSLTCLVKGFYPSDIAVEWESNGQPENNYKTTPPVLDSDGSFFLYSKLTVDKSRWQQGNVFSCSVMHEALHNHYTQKSLSLSPGGGGGSGGGGSGGGGSEVQLLESGGGLVQPGGSLRLSCAASGFTFSDFWMHWVRQAPGKGLEWISYISGDSGYTNYADSVKGRFTISRDNSKNTLYLQMNSLRAEDTAVYYCARDRPYYYYMDVWGKGTTVTVSSGGGGSGGGGSGGGGSGGGGSDIQMTQSPSSLSASVGDRVTITCRASQSVSRSLAWYQQKPGKAPKLLIYAASSLQSGVPSRFSGSGSGTDFTLTISSLQPEDFATYYCQQYKSYPVTFGQGTKVEIK
light: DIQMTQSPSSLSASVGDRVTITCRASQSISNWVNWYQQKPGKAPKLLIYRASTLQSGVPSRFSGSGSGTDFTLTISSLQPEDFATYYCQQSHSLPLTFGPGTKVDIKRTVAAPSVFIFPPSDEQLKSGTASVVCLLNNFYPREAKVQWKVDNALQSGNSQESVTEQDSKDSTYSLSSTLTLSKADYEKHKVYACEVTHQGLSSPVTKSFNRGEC
Molecule B4 yielded a Kd of 3130 nM.

B5: PMAB205 (bispecific antibody, human IgG1, kappa)
heavy: QVQLVQSGAEVKKPGASVKVSCKASGYTFSDHYMHWVRQAPGQGLEWMGTIAPSGGSTSYAQKFQGRVTMTRDTSTSTVYMELSSLRSEDTAVYYCAADNGHASGWLYYYGMDVWGQGTTVTVSSASTKGPSVFPLAPSSKSTSGGTAALGCLVKDYFPEPVTVSWNSGALTSGVHTFPAVLQSSGLYSLSSVVTVPSSSLGTQTYICNVNHKPSNTKVDKKVEPKSCDKTHTCPPCPAPEAAGAPSVFLFPPKPKDTLMISRTPEVTCVVVDVSHEDPEVKFNWYVDGVEVHNAKTKPREEQYNSTYRVVSVLTVLHQDWLNGKEYKCKVSNKALPAPIEKTISKAKGQPREPQVYTLPPSREEMTKNQVSLTCLVKGFYPSDIAVEWESNGQPENNYKTTPPVLDSDGSFFLYSKLTVDKSRWQQGNVFSCSVMHEALHNHYTQKSLSLSPGGGGGSGGGGSGGGGSEVQLLESGGGLVQPGGSLRLSCAASGFTFSDFWMHWVRQAPGKGLEWISYISGDSGYTNYADSVKGRFTISRDNSKNTLYLQMNSLRAEDTAVYYCARDRPYYYYMDVWGKGTTVTVSSGGGGSGGGGSGGGGSGGGGSDIQMTQSPSSLSASVGDRVTITCRASQSVSRSLAWYQQKPGKAPKLLIYAASSLQSGVPSRFSGSGSGTDFTLTISSLQPEDFATYYCQQYKSYPVTFGQGTKVEIK
light: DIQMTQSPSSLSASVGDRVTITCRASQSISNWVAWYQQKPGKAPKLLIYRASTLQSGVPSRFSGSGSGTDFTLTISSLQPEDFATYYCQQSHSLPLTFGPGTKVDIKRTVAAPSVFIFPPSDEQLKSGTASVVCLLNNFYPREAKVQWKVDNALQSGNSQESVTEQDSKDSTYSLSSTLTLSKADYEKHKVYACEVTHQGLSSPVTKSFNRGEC
B5 yielded a Kd of 795 nM.

B6: PMAB207 (bispecific antibody, human IgG1, kappa)
heavy: QVQLVQSGAEVKKPGASVKVSCKASGYTFSDHYMHWVRQAPGQGLEWMGTIAPSGGRTSYAQKFQGRVTMTRDTSTSTVYMELSSLRSEDTAVYYCAADNGHASGWLYYYGMDVWGQGTTVTVSSASTKGPSVFPLAPSSKSTSGGTAALGCLVKDYFPEPVTVSWNSGALTSGVHTFPAVLQSSGLYSLSSVVTVPSSSLGTQTYICNVNHKPSNTKVDKKVEPKSCDKTHTCPPCPAPEAAGAPSVFLFPPKPKDTLMISRTPEVTCVVVDVSHEDPEVKFNWYVDGVEVHNAKTKPREEQYNSTYRVVSVLTVLHQDWLNGKEYKCKVSNKALPAPIEKTISKAKGQPREPQVYTLPPSREEMTKNQVSLTCLVKGFYPSDIAVEWESNGQPENNYKTTPPVLDSDGSFFLYSKLTVDKSRWQQGNVFSCSVMHEALHNHYTQKSLSLSPGGGGGSGGGGSGGGGSEVQLLESGGGLVQPGGSLRLSCAASGFTFSDFWMHWVRQAPGKGLEWISYISGDSGYTNYADSVKGRFTISRDNSKNTLYLQMNSLRAEDTAVYYCARDRPYYYYMDVWGKGTTVTVSSGGGGSGGGGSGGGGSGGGGSDIQMTQSPSSLSASVGDRVTITCRASQSVSRSLAWYQQKPGKAPKLLIYAASSLQSGVPSRFSGSGSGTDFTLTISSLQPEDFATYYCQQYKSYPVTFGQGTKVEIK
light: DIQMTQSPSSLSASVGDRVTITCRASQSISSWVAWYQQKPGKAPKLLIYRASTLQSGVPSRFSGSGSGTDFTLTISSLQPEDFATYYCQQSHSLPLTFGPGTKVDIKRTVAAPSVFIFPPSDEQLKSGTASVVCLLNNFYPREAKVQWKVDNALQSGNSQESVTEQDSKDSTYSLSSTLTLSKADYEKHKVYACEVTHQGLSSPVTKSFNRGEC
Take B6: the Kd was found to be 445 nM.
